According to US20260049138A1 (Chugai, published 2026):
Changes are numbered by the printed parent chain. Numbers in names are those of the source.

B1: CE115HA000 K52W one-arm antibody (antibody, human IgG1, kappa, L234A L235A, N297A, name in Kabat numbering)
heavy: QVQLVESGGGVVQPGRSLRLSCAASGFTFSNAWMHWVRQAPGKGLEWVAQIWAKSNNYATYYAESVKGRFTISRDDSKNSLYLQMNSLKTEDTAVYYCRYVHYGAYYGVDAWGQGTTVTVSSASTKGPSVFPLAPSSKSTSGGTAALGCLVKDYFPEPVTVSWNSGALTSGVHTFPAVLQSSGLYSLSSVVTVPSSSLGTQTYICNVNHKPSNTKVDKKVEPKSCDKTHTCPPCPAPEAAGGPSVFLFPPKPKDTLMISRTPEVTCVVVDVSHEDPEVKFNWYVDGVEVHNAKTKPREEQYASTYRVVSVLTVLHQDWLNGKEYKCKVSNKALPAPIEKTISKAKGQPREPQVYTLPPSRCELTKNQVSLSCAVKGFYPSDIAVEWESNGQPENNYKTTPPVLDSDGSFFLVSKLTVDKSRWQQGNVFSCSVMHEALHNHYTQKSLSLSPDYKDDDDK
chain: EPKSSDKTHTCPPCPAPELLGGPSVFLFPPKPKDTLMISRTPEVTCVVVDVSHEDPEVKFNWYVDGVEVHNAKTKPREEQYNSTYRVVSVLTVLHQDWLNGKEYKCKVSNKALPAPIEKTISKAKGQPREPQVCTLPPSRDELTKNQVSLWCLVKGFYPSDIAVEWESNGQPENNYKTTPPVLDSDGSFFLYSKLTVDKSRWQQGNVFSCSVMHEALHNRYTQKSLSLSP
light: DIVMTQSPLSLPVTPGEPASISCRSSQSLVHSNRNTYLHWYQQKPGQAPRLLIYKVSNRFSGVPDRFSGSGSGTDFTLKISRVEAEDVGVYYCGQGTQVPYTFGQGTKLEIKRTVAAPSVFIFPPSDEQLKSGTASVVCLLNNFYPREAKVQWKVDNALQSGNSQESVTEQDSKDSTYSLSSTLTLSKADYEKHKVYACEVTHQGLSSPVTKSFNRGEC
B2: CE115HA000 N31S one-arm antibody (antibody, human IgG1, kappa, L234A L235A, N297A, name in Kabat numbering)
heavy: B1 heavy with N31S, W52K
chain: B1 chain
light: B1 light
B3: CE115HA000 N31K one-arm antibody (antibody, human IgG1, kappa, L234A L235A, N297A, name in Kabat numbering)
heavy: B1 heavy with N31K, W52K
chain: B1 chain
light: B1 light
B4: CE115HA000 K52bR one-arm antibody (antibody, human IgG1, kappa, L234A L235A, N297A, name in Kabat numbering)
heavy: B1 heavy with W52K, K54R
chain: B1 chain
light: B1 light
B5: CE115HA000 N31R one-arm antibody (antibody, human IgG1, kappa, L234A L235A, N297A, name in Kabat numbering)
heavy: B1 heavy with N31R, W52K
chain: B1 chain
light: B1 light
B6: CE115HA000 K52bS one-arm antibody (antibody, human IgG1, kappa, L234A L235A, N297A, name in Kabat numbering)
heavy: B1 heavy with W52K, K54S
chain: B1 chain
light: B1 light
B7: CE115HA000 K64S one-arm antibody (antibody, human IgG1, kappa, L234A L235A, N297A, name in Kabat numbering)
heavy: B1 heavy with W52K, K67S
chain: B1 chain
light: B1 light
B8: CE115HA000 N31G one-arm antibody (antibody, human IgG1, kappa, L234A L235A, N297A, name in Kabat numbering)
heavy: B1 heavy with N31G, W52K
chain: B1 chain
light: B1 light
B9: CE115HA000 K52bD one-arm antibody (antibody, human IgG1, kappa, L234A L235A, N297A, name in Kabat numbering)
heavy: B1 heavy with W52K, K54D
chain: B1 chain
light: B1 light
B10: CE115HA000 K64D one-arm antibody (antibody, human IgG1, kappa, L234A L235A, N297A, name in Kabat numbering)
heavy: B1 heavy with W52K, K67D
chain: B1 chain
light: B1 light
B11: CE115HA000 N31W one-arm antibody (antibody, human IgG1, kappa, L234A L235A, N297A, name in Kabat numbering)
heavy: B1 heavy with N31W, W52K
chain: B1 chain
light: B1 light
B12: CE115HA000 K52bA one-arm antibody (antibody, human IgG1, kappa, L234A L235A, N297A, name in Kabat numbering)
heavy: B1 heavy with W52K, K54A
chain: B1 chain
light: B1 light
B13: CE115HA000 N53A one-arm antibody (antibody, human IgG1, kappa, L234A L235A, N297A, name in Kabat numbering)
heavy: B1 heavy with W52K, N56A
chain: B1 chain
light: B1 light
B14: CE115HA000 K64Q one-arm antibody (antibody, human IgG1, kappa, L234A L235A, N297A, name in Kabat numbering)
heavy: B1 heavy with W52K, K67Q
chain: B1 chain
light: B1 light
B15: CE115HA000 K64A one-arm antibody (antibody, human IgG1, kappa, L234A L235A, N297A, name in Kabat numbering)
heavy: B1 heavy with W52K, K67A
chain: B1 chain
light: B1 light
B16: CE115HA000 N31H one-arm antibody (antibody, human IgG1, kappa, L234A L235A, N297A, name in Kabat numbering)
heavy: B1 heavy with N31H, W52K
chain: B1 chain
light: B1 light
B17: CE115HA000 N31A one-arm antibody (antibody, human IgG1, kappa, L234A L235A, N297A, name in Kabat numbering)
heavy: B1 heavy with N31A, W52K
chain: B1 chain
light: B1 light
notes: One-arm antibody: altered VH-pE22Hh, Kn010G3, GLS3000-kappa; The same holds for m64 to m321
B18: CE115HA000 K52Y one-arm antibody (antibody, human IgG1, kappa, L234A L235A, N297A, name in Kabat numbering)
heavy: B1 heavy with W52Y
chain: B1 chain
light: B1 light
B19: CE115HA000 K52bQ one-arm antibody (antibody, human IgG1, kappa, L234A L235A, N297A, name in Kabat numbering)
heavy: B1 heavy with W52K, K54Q
chain: B1 chain
light: B1 light
B20: CE115HA000 K52bL one-arm antibody (antibody, human IgG1, kappa, L234A L235A, N297A, name in Kabat numbering)
heavy: B1 heavy with W52K, K54L
chain: B1 chain
light: B1 light
B21: CE115HA000 K52bN one-arm antibody (antibody, human IgG1, kappa, L234A L235A, N297A, name in Kabat numbering)
heavy: B1 heavy with W52K, K54N
chain: B1 chain
light: B1 light
B22: CE115HA000 N53D one-arm antibody (antibody, human IgG1, kappa, L234A L235A, N297A, name in Kabat numbering)
heavy: B1 heavy with W52K, N56D
chain: B1 chain
light: B1 light
B23: CE115HA000 K64E one-arm antibody (antibody, human IgG1, kappa, L234A L235A, N297A, name in Kabat numbering)
heavy: B1 heavy with W52K, K67E
chain: B1 chain
light: B1 light
B24: CE115HA000 N31Y one-arm antibody (antibody, human IgG1, kappa, L234A L235A, N297A, name in Kabat numbering)
heavy: B1 heavy with N31Y, W52K
chain: B1 chain
light: B1 light
B25: CE115HA000 N31I one-arm antibody (antibody, human IgG1, kappa, L234A L235A, N297A, name in Kabat numbering)
heavy: B1 heavy with N31I, W52K
chain: B1 chain
light: B1 light
B26: CE115HA000 N31D one-arm antibody (antibody, human IgG1, kappa, L234A L235A, N297A, name in Kabat numbering)
heavy: B1 heavy with N31D, W52K
chain: B1 chain
light: B1 light
B27: CE115HA000 K52bY one-arm antibody (antibody, human IgG1, kappa, L234A L235A, N297A, name in Kabat numbering)
heavy: B1 heavy with W52K, K54Y
chain: B1 chain
light: B1 light
B28: CE115HA000 L78I one-arm antibody (antibody, human IgG1, kappa, L234A L235A, N297A, name in Kabat numbering)
heavy: B1 heavy with W52K, L81I
chain: B1 chain
light: B1 light
B29: CE115HA000 N31F one-arm antibody (antibody, human IgG1, kappa, L234A L235A, N297A, name in Kabat numbering)
heavy: B1 heavy with N31F, W52K
chain: B1 chain
light: B1 light
B30: CE115HA000 K75R one-arm antibody (antibody, human IgG1, kappa, L234A L235A, N297A, name in Kabat numbering)
heavy: B1 heavy with W52K, K78R
chain: B1 chain
light: B1 light
B31: CE115HA000 N31Q one-arm antibody (antibody, human IgG1, kappa, L234A L235A, N297A, name in Kabat numbering)
heavy: B1 heavy with N31Q, W52K
chain: B1 chain
light: B1 light
B32: CE115HA000 K75T one-arm antibody (antibody, human IgG1, kappa, L234A L235A, N297A, name in Kabat numbering)
heavy: B1 heavy with W52K, K78T
chain: B1 chain
light: B1 light

Molecular target: T1, CD3ε homodimer protein (human, UniProt P07766 23-126, limits assumed, sulfo-tag or biotin label in the ECL assays; amine-coupled to the chip in SPR)
T1 construct: also called human CD3ε homodimer protein; CD3 (CD3ε)
T1 sequence (P07766 23-126 limits assumed): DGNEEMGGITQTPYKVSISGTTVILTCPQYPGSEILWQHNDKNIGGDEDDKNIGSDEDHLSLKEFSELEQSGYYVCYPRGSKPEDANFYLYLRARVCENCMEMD
Experiment: SPR Biacore T200; CD3ε homodimer on CM4 chip;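 further: Single-residue variant antibodies injected as analyte over CD3ε homodimer immobilized by amine coupling, run at 25 °C in HBS-EP+ buffer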

Row | Binder | ratio of amounts bound Z=Y/X (altered form / CE115HA000)
1 | B1 | 0.22
2 | B2 | 0.81
3 | B3 | 1.01
4 | B4 | 1.11
5 | B5 | 1.14
6 | B6 | 0.68
7 | B7 | 0.84
8 | B8 | 0.39
9 | B9 | 0.27
10 | B10 | 0.72
11 | B11 | 0.63
12 | B12 | 0.67
13 | B13 | 0.7
14 | B14 | 0.89
15 | B15 | 0.82
16 | B16 | 0.68

Row | Binder | ratio of amounts bound Z=Y/X (altered form / CE115HA000)
17 | B17 | 0.5
18 | B18 | 0.18
19 | B19 | 0.6
20 | B20 | 0.61
21 | B21 | 0.27
22 | B22 | 0.39
23 | B23 | 0.74
24 | B24 | 0.64
25 | B25 | 0.81
26 | B26 | 0.37
27 | B27 | 0.74
28 | B28 | 1.34
29 | B29 | 0.62
30 | B30 | 1.01
31 | B31 | 0.49
32 | B32 | 0.84
